# Laboratory results: US20250026844A1 (SHANDONG SIMCERE BIOPHARMACEUTICAL, published 2025)
# Values joined by “and” are separate entries in the source; they are usually repeats but may differ in a detail not shown here. Identical values can stand only once. Like-named read-outs stand apart in the source and are kept apart here.
# T1: human BCMA on cells (human, UniProt Q02223 1-184)
# T1 construct: whole, on cells; also called H929 cells; U266 cells
# T1 sequence (looked up): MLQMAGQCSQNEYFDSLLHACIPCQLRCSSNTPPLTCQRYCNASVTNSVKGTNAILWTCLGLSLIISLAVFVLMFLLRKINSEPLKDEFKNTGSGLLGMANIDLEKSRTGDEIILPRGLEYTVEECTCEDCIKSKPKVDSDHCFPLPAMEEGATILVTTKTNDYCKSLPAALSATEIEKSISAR
# T2: human BCMA-His protein (human, UniProt Q02223 1-54)
# T2 construct: Bought protein; also called human BCMA protein; huBCMA-His; not shown: His tag
# T2 sequence (looked up): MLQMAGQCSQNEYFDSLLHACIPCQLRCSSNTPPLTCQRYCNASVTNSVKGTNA
# B1: REGN5459-hIgG1 (antibody, V domains shown)
# VH: EVQLVESGGGLVQPGGSLRLSCAASGFTFSNFWMTWVRQAPGKGLEWVANMNQDGSEKYYVDSVKGRFTISRDNAKSSLYLQMNSLRAEDTAVYYCARDREYCISTSCYDDFDYWGQGTLVTVSS
# VL: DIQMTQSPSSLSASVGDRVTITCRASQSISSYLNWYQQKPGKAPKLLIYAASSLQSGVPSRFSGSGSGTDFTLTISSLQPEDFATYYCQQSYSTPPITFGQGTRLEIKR
# notes: Control antibody; also called REGN5459-hlgG1; BCMA antibody
# Legend:
# human BCMA on cells [1] = molecular target: T1, human BCMA on cells; assay: FACS, H929 cells
# Procedure: (§1) H929 cells and U266 cells were scale-up cultured in T-75 cell culture flasks to the logarithmic growth phase, and the cells were pipetted into a single cell suspension. After the cells were counted, the cells were centrifuged and the cell pellet was resuspended in FACS buffer (PBS+2% fetal calf serum) to 2×10⁶ cells per ml, and the suspension was added to the 96-well FACS reaction plate at 50 μl per well, REGN5459-hlgG1 and HPN217-hHcAb antibodies were used as primary antibodies, and APC-labeled goat anti-human IgG (H+L) secondary antibodies (purchased from Jackson, catalog number: 109-605-088) were detected and analyzed by FACS (FACS Canto™, purchased from BD Corporation). The results are shown in Table 4 and FIGS. 2A and 2B, and indicate that both H929 cells and U266 cells can bind to REGN5459-hlgG1 and HPN217-hHcAb antibodies.
# human BCMA-His protein [2] = molecular target: T2, human BCMA-His protein; assay: ligand competition ELISA: plate coated with human BCMA protein 1 ug/mL, antibody titrated, blocked ligand hAPRIL-biotin 0.5 ug/mL, OD450
# Procedure: The antigen protein was diluted with PBS to a final concentration of 1 μg/mL, and then added to a 96-well ELISA plate at 50 μl per well. The plate was sealed with a plastic film and incubated overnight at 4° C., the plate was washed twice with PBS the next day, and then a blocking solution [PBS+2% (w/v) BSA] was added for blocking at room temperature for 2 h. The blocking solution was discarded, the plate was washed 3 times with PBS, and 200 nM BCMA recombinant chimeric nanobody diluted gradiently or negative control antibody was added at 50 μl/well. hAPRIL-biotin (purchased from Acro, catalog number: APL-H82F5) was diluted to 0.5 μg/mL, with 50 μl per well. After incubation at 37° C. for 1.5 h, the plate was washed 3 times with PBS. HRP (horseradish peroxidase)-labeled secondary antibody (purchased from Sigma, catalog number: S2438-250 μg) was added, and incubated at 37° C. for 1 h, and the plate was washed 5 times with PBS. TMB substrate was added at 50 μl/well, and incubated at room temperature for 10 min, then a stop solution (1.0 M HCl) was added at 50 al/well. The OD450 nm values were read by an ELISA microplate reader (Multimode Plate Reader, EnSight, purchased from Perkin Elmer). BCMA-Lab05, BCMA-Lab06 and BCMA-Lab08 had average blocking effects, while the other antibodies had good blocking effects.
# human BCMA-His protein [3] = molecular target: T2, human BCMA-His protein; assay: SPR (Biacore), antibody captured on Protein A chip, BCMA-His in solution
# Procedure: (§2) The flow cell was set to 25° C. The sample block was set to 16° C. Both were pretreated with the running buffer. In each cycle, an antibody to be detected was first captured with a Protein A chip, and then a single concentration of BCMA antigen protein was injected. The binding and dissociation processes of the antibody and the antigen protein were recorded, and finally Glycine pH 1.5 (GE Healthcare; BR-1003-54) was used to complete chip regeneration. Binding was measured by injecting different concentrations of BCMA-His in solution for 240 s with a flow rate of 30 μL/min. The concentration started from 200 nM (see the detailed results for the actual concentration in the test) and was diluted at 1:1, making a total of 5 concentrations. The dissociation phase was monitored for up to 600 s and was triggered by switching from sample solution to running buffer. The surface was regenerated by washing with a 10 mM glycine solution (pH 1.5) for 30 s at a flow rate of 30 μL/min. Bulk refractive index difference was corrected by subtracting the response obtained from the goat anti-human Fc surface. Blank injection was also subtracted (=double reference). For calculation of apparent KD and other kinetic parameters, Langmuir 1:1 model was used. The binding rate (Kₐ), dissociation rate (Kdis) and binding affinity (KD) of the recombinant candidate antibody to human BCMA protein are shown in the table, wherein REGN5459-hlgG1 antibody was used as a control.
# The specific operating method referred to Example 5. The binding rate (Ka), dissociation rate (Kdis) and binding affinity (KD) of the humanized candidate nanobodies to human BCMA protein are shown Table 18, wherein REGN5459-hlgG1 antibody was used as a control.
# monkey BCMA-His protein [4] = molecular target: T3, monkey BCMA-His protein (monkey, UniProt A0A2K5UD97 1-53); assay: ELISA, plate coated with monkey BCMA-His 1 ug/mL, antibody titrated from 100 nM, HRP secondary antibody, OD450
# T3 construct: Bought protein; also called monkey BCMA protein; CynoBCMA-his
# T3 sequence (A0A2K5UD97 entry or part of it limits assumed): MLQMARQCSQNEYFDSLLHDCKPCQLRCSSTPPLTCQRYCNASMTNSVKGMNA
# Procedure: (§3) The specific method was as follows: Human BCMA protein (purchased from Acro, catalog number: BCA-H522y) and monkey BCMA protein (purchased from Acro, catalog number: BCA-C52H7) were diluted with PBS to a final concentration of 1 μg/mL, respectively, and then added to a 96-well ELISA plate at 50 al/well. The plate was sealed with a plastic film and incubated overnight at 4° C., the plate was washed twice with PBS the next day, and then a blocking solution [PBS+2% (w/v) BSA] was added for blocking at room temperature for 2 h. The blocking solution was discarded, the plate was washed 3 times with PBS, and 100 nM BCMA recombinant chimeric nanobody diluted gradiently or negative control antibody was added at 50 μl/well. After incubation at 37° C. for 2 h, the plate was washed 3 times with PBS. HRP (horseradish peroxidase)-labeled secondary antibody (purchased from Merck, catalog number: AP113P) was added, and incubated at 37° C. for 1 h, and the plate was washed 5 times with PBS. TMB substrate was added at 50 μl/well, and incubated at room temperature for 10 min, then a stop solution (1.0 M HCl) was added at 50 μl/well. The OD450 nm values were read by an ELISA microplate reader (Multimode Plate Reader, EnSight, purchased from Perkin Elmer). All antibodies bound to human BCMA protein. BCMA-Lab06 and BCMA-Lab07 had no cross-binding activity with monkey BCMA protein. […]
# human BCMA-His protein [5] = molecular target: T2, human BCMA-His protein; assay: SPR (Biacore), antibody captured on Protein A chip, BCMA-His in solution; remark: listed apart in the source
# Procedure: as §2
# According to the method in Example 5, Biacore was used to detect the affinity of the recombinant antibodies to human BCMA protein.
# human BCMA on cells [6] = molecular target: T1, human BCMA on cells; assay: FACS, U266 cells
# Procedure: (§4) The desired cells were scale-up cultured in T-75 cell culture flasks to the logarithmic growth phase, and the cells were pipetted into a single cell suspension. After the cells were counted, the cells were centrifuged and the cell pellet was resuspended in FACS buffer (PBS+2% fetal calf serum) to 2×10⁶ cells per ml, and the suspension was added to the 96-well FACS reaction plate at 50 μl per well, then the sample to be tested of the candidate antibody was added at 50 μl per well and the mixture was incubated at 4° C. for 1 h. The obtained mixture was centrifuged and washed 3 times with a PBS buffer. Secondary antibody anti-hlgG(Fc) Alexa 647 (purchased from Jackson, catalog number: 109-605-098) was added at 50 μl/well, and incubated on ice for 1 h. The obtained mixture was centrifuged and washed 3 times with a PBS buffer. 100 μl of the mixture was taken for detection and result analysis by FACS (FACS Canto™, purchased from BD Company). Data analysis was performed by software (FlowJo) to obtain the mean fluorescence intensity (MFI) of the cells. Then, a software (GraphPad Prism8) was used for analysis, data fitting and EC50 calculation. BCMA-Lab05, BCMA-Lab06, and BCMA-Lab08 had poor binding to H929 and U266 cells, while the other antibodies performed better.
# human BCMA-His protein [7] = molecular target: T2, human BCMA-His protein; assay: ELISA, plate coated with human BCMA-His 1 ug/mL, antibody titrated from 100 nM, HRP secondary antibody, OD450
# Procedure: as §3
# human BCMA-His protein [8] = molecular target: T2, human BCMA-His protein; assay: SPR (Biacore), antibody captured on Protein A chip, BCMA-His in solution; remark: listed apart in the source
# Procedure: as §2
# human BCMA on cells [9] = molecular target: T1, human BCMA on cells; assay: FACS, U266 cells; remark: listed apart in the source
# Procedure: as §1
# human BCMA on cells [10] = molecular target: T1, human BCMA on cells; assay: FACS, U266 cells; remark: listed apart in the source
# Procedure: as §4
# (§5) The specific method was the same as in Example 4(B).
# human BCMA on cells [11] = molecular target: T1, human BCMA on cells; assay: FACS, H929 cells; remark: listed apart in the source
# Procedure: as §4
# human BCMA-His protein [12] = molecular target: T2, human BCMA-His protein; assay: ligand competition ELISA: plate coated with human BCMA protein 1 ug/mL, antibody titrated, blocked ligand hAPRIL-biotin 0.5 ug/mL, OD450; remark: listed apart in the source
# monkey BCMA-His protein [13] = molecular target: T3, monkey BCMA-His protein; assay: ELISA, plate coated with monkey BCMA-His 1 ug/mL, antibody titrated from 100 nM, HRP secondary antibody, OD450; remark: listed apart in the source
# Procedure: The binding activity of the control antibody to human BCMA-His protein (purchased from Acro, catalog number: BCA-H522y) and monkey BCMA-His protein (purchased from Acro, catalog number: BCA-C52H7) was detected by ELISA. The specific method was as follows: The antigen protein was diluted with PBS to a final concentration of 1 μg/mL, and then added to a 96-well ELISA plate at 50 μl per well. The plate was sealed with a plastic film and incubated overnight at 4° C., the plate was washed twice with PBS the next day, and then a blocking solution [PBS+2% (w/v) BSA] was added for blocking at room temperature for 2 h. The blocking solution was poured off and 50 μl of 100 nM serially diluted control antibody or negative control antibody was added to each well. After incubation at 37° C. for 2 h, the plate was washed 3 times with PBS. HRP (horseradish peroxidase)-labeled secondary antibody (purchased from Merck, catalog number: AP113P) was added, and incubated at 37° C. for 1 h, and the plate was washed 5 times with PBS. TMB substrate was added at 50 μl/well, and incubated at room temperature for 10 min, then a stop solution (1.0 M HCl) was added at 50 al/well. The OD450 nm values were read by an ELISA microplate reader (Multimode Plate Reader, EnSight, purchased from Perkin Elmer). The results are shown in Tables 2 and 3 and FIGS. 1A and 1B. […]
# human BCMA on cells [14] = molecular target: T1, human BCMA on cells; assay: FACS, H929 cells; remark: listed apart in the source
# Procedure: as §4, §5
binder,measurement,setting,value
B1,EC50,human BCMA on cells [1],6.78 nM
same,IC50 (read off the curve),human BCMA-His protein [2],~6 nM and ~5 nM
same,Kd,human BCMA-His protein [3],0.208 nM
same,koff,human BCMA-His protein [3],0.000162 s⁻¹
same,kon,human BCMA-His protein [3],781000 M⁻¹ s⁻¹
same,EC50 (read off the curve),monkey BCMA-His protein [4],~0.1 nM
same,Kd,human BCMA-His protein [5],0.267 nM
same,koff,human BCMA-His protein [5],0.000197 s⁻¹
same,kon,human BCMA-His protein [5],739000 M⁻¹ s⁻¹
same,EC50,human BCMA on cells [6],7.14 nM and 16.6 nM and 9.49 nM
same,EC50 (read off the curve),human BCMA-His protein [7],~0.1 nM
same,Kd,human BCMA-His protein [8],0.233 nM
same,koff,human BCMA-His protein [8],0.000178 s⁻¹
same,kon,human BCMA-His protein [8],766000 M⁻¹ s⁻¹
same,EC50,human BCMA on cells [9],9.12 nM
same,EC50,human BCMA on cells [10],16.6 nM and 32.2 nM
same,EC50,human BCMA on cells [11],5.24 nM and 9.39 nM and 6.46 nM
same,IC50 (read off the curve),human BCMA-His protein [12],~5 nM
same,EC50 (read off the curve),monkey BCMA-His protein [13],~0.1 nM
same,EC50,human BCMA on cells [14],9.39 nM and 13.2 nM
